Measurements taken from US20170082635A1.

Legend:
Histone H3.2 (human) = Histone H3.2 (human) (UniProt Q71DI3); experiment: in vivo azide-A-DSBSO XL-MS, HEK 293 cells
Histone H4 (human) = Histone H4 (human) (UniProt P62805); experiment: in vivo azide-A-DSBSO XL-MS, HEK 293 cells

A unique cross-linked peptides (Histone H3.2 (human)) of 8 peptides and a unique cross-linked peptides (Histone H4 (human)) of 10 peptides were found for “Histone H2B (core histone, isoforms not told apart)” in this work.
